The record followed here is US20240299584A1, “NON-CODING RNA PROTECTING AGAINST HEART FAILURE” (MEDIZINISCHE HOCHSCHULE HANNOVER, priority 2019, published 2024).

Data set [1] has as its system HL-1 cells. Nature of the data set: WST-1 assay (cell viability). To be noted: HL-1 cells treated with doxorubicin 0.25 μM 48 h. The class given is cell-based, mouse. On the procedure:
(§1) HL-1 cells were cultured in Claycomb medium together with 10% FBS, norepinephrine, L-Glutamine and pencillin/streptomycin as manufacturer's protocol. 3T3 and RAW264.7 cells were cultured in DMEM with 10% FBS and pencillin/streptomycin. Neonatal rat cardiomyocytes (NRCM) were isolated from one to three-day old rat babies by using the Neonatal Heart Dissociation Kit (Miltenyi). Human iPSC derived cardiomyocytes (hiPSC-cm) were differentiated at the lab of IMTTS. All the cells were treated with 0.25 μM Doxorubicin (Sigma-Aldrich) for 48 hours. circ-Insr siRNA (Eurofins), in vitro circular RNA and overexpression plasmid were transfected with Lipofectamine 2000 (Life Technologies) in OptiMEM medium. NRCM and hipsc-CM were transduced by AAV6 (MOI: 1*10^4) for 72 hours.
WST-1 assay was performed using Cell Proliferation Reagent WST-1 (Roche) as per the manufacturer instruction. Briefly, HL-1 cells were seeded in 96 well plate and next day treated with 0.25 μM Doxorubicin in normal medium with 10% FBS for forty-eight hours. Next, 10 μL WST1 reagent was added and incubated for 1 hour followed by the absorbance measurement (450 nm) at HT Synergy (Biotek) plate reader.

Data set [2] addresses T1, SSBP1 (Mus musculus, UniProt Q9CYR0).
T1 construct: biotinylated DNA oligo probes against endogenous or ectopically expressed circ-Insr and linear-Insr; endogenous in cells; host or cells: 3T3 cells
T1 sequence (Q9CYR0 17-152): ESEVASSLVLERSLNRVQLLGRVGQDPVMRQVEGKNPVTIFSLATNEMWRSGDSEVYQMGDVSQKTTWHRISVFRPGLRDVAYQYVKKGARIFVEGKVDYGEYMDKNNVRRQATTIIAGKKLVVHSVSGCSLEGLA
The experiment in a line: RNA pull-down with circINSR probe, Western blotting. Type of data set: binding. The note with it: Western blot with SSBP1-specific antibodies. As to the method: Finally, RNA pull-down experiments were performed to identify potential protein interaction partners of circINSR. To do so, a biotin-labelled probe was designed which spans the backsplice junction (FIG. 8A). […] Mass spectrometry analysis of the pull-down lysates yielded a list of potential protein interactors. After applying several filtering parameters (relative MS peptide count >15, relative enrichment over hostgene and control probe log 2FC>2) and cat rapid analysis to calculate the interaction propensity with circINSR, Single-stranded DNA-binding protein 1, SSBP1, was identified as the most probable binding partner of circINSR (FIG. 8B). […] Moreover, co-localisation of circINSR and SSBP1 in Immuno-RNA-FISH staining, further confirmed the interaction between those two.
Cell pellets were lysed in 1× Cell lysis buffer (Cell Signaling) and isolated protein was measured by Bradford (Biorad) for quantification. […] Band intensity was calculated by Image J software.
10^6 cells were washed in ice-cold phosphate-buffered saline, lysed in 500 μl co-IP buffer, and incubated with 3 μg biotinylated DNA oligo probes against endogenous or ectopically expressed circ-Insr and linear-Insr, at room temperature for 2 h. […] The bound proteins in the pull-down materials were analyzed by western blotting and the RNA sample were analysed via qRT-PCR.

In data set [3] the test system is HL-1 cells. The experiment in a line: Analysis of mitochondrial fission (MitoTracker). Type of data set: cell-based, mouse. To be noted: doxorubicin 0.25 μM 48 h, circ-Insr by overexpression plasmid vs negative control. As to the method:
Based on the results of the foregoing examples, it was reasoned that circ-Insr could interact with SSBP1. To further confirm the interaction between circ-Insr and SSBP1, siRNA mediated circ-Insr knock-down was applied in HL-1 cells. Next, RNA pulldown was performed with circ-Insr and scramble biotinylated probes. RT-qPCR confirmed that decrease of circ-Insr appeared both in input and circ-Insr pulldown group (FIG. 23A). […] Therefore, we assumed that circ-Insr is a cofactor of SSBP1 resulting in the regulation of mitochondrial function in cardiomyocytes by stabilizing mtDNA. […] Furthermore, mito-damage assay was applied to measure the changes in mitochondrial membrane potential (MMP). […]
Mitochondrial fission was analysed by staining mitochondria via MitoTracker® Deep Red FM (Cell Signalling) (Aung L H H, Li R B, Prabhakar B S, Maker A V, Li P F. Mitochondrial protein 18 (MTP18) plays a pro-apoptotic role in chemotherapy-induced gastric cancer cell apoptosis. Oncotarget. 2017; 8:56582-97). […] Mitochondria were imaged using Nikon Eclipse Ti microscope with 60× oils Objective (CFI Plan Apo Lambda 60× Oil) and images were analyzed with NIS Elements. To quantitatively analyse cells with mitochondria fission, those cells with disintegrated mitochondria were considered as fission. The total cell numbers were counted via Hochest 33342. […] More than 150 cells in 10-15 random fields were counted.

The subject of data set [4] is HL-1 cells. Nature of the data set: Annexin V & 7-AAD staining (apoptosis). Type of data set: cell-based, mouse. To be noted: HL-1 cells treated with doxorubicin 0.25 μM 48 h. As to the method:
as §1
FlowCellect Annexin Red kit (Millipore) was used to stain apoptotic cells as per the manufacturer instruction. Briefly, cells were seeded in 12 well plate and next day treated with 0.25 μM Doxorubicin in normal medium with 10% FBS for forty-eight hours. Then cells were trypsinized and harvested and stained with Annexin-V for 15 minutes at 37° C. in 1× assay buffer. Annexin-V stained cells were centrifuged and washed with 1× assay buffer. Next cells were incubated with 7-AAD for 5 minutes and acquired on Guava (Millipore) flow cytometer. Data was analyzed with FLOWJO software.

B1: circINSR: circRNA formed through backsplicing of the second exon of the insulin receptor gene transcript; overexpressed from plasmid or AAV (nucleic acid, listed as Homo sapiens)
chain: UGUGUCCCGGCAUGGAUAUCCGGAACAACCUCACUAGGUUGCAUGAGCUGGAGAAUUGCUCUGUCAUCGAAGGACACUUGCAGAUACUCUUGAUGUUCAAAACGAGGCCCGAAGAUUUCCGAGACCUCAGUUUCCCCAAACUCAUCAUGAUCACUGAUUACUUGCUGCUCUUCCGGGUCUAUGGGCUCGAGAGCCUGAAGGACCUGUUCCCCAACCUCACGGUCAUCCGGGGAUCACGACUGUUCUUUAACUACGCGCUGGUCAUCUUCGAGAUGGUUCACCUCAAGGAACUCGGCCUCUACAACCUGAUGAACAUCACCCGGGGUUCUGUCCGCAUCGAGAAGAACAAUGAGCUCUGUUACUUGGCCACUAUCGACUGGUCCCGUAUCCUGGAUUCCGUGGAGGAUAAUUACAUCGUGUUGAACAAAGAUGACAACGAGGAGUGUGGAGACAUCUGUCCGGGUACCGCGAAGGGCAAGACCAACUGCCCCGCCACCGUCAUCAACGGGCAGUUUGUCGAACGAUGUUGGACUCAUAGUCACUGCCAGAAAG
modifications: circular RNA; RNA sequence
notes: circRNA formed through backsplicing of the second exon of the insulin receptor gene transcript; overexpressed from plasmid or AAV
As to B1, the results for the “cell viability (WST-1)” value in data set [1] and in data set [1] (listed as circ-Insr) were “enhanced cell viability” and “enhance the cell survival”, respectively. Further, in data set [2], the “interaction of circINSR with SSBP1” value is on record as “confirmed a physical interaction”. The “percentage of cells undergoing mitochondrial fission” value in data set [3] is “significantly reduce”. The “apoptotic cells (Annexin V)” value in data set [4] is reported as “significantly lower levels of apoptosis”.
